# Laboratory results taken from the nanobody polyreactivity screen of Harvey et al. (2022).
# Test: yeast display, Sf9 membrane polyspecificity reagent, FACS + sequencing; frameworks hold sequencing errors
# Method in brief: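 Genes from sorted yeast were amplified by colony PCR, read by MiSeq 2 × 250 sequencing and filtered on CDR length. These cells carried a synthetic nanobody library in Saccharomyces cerevisiae BJ5465 and were sorted by FACS into low and high (top ~1%) gates on anti-HA and streptavidin fluorescence. Polyreactivity is labelled according to the gate of origin.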
row,Sequence,polyreactivity (PSR sort gate)
1,QVQLVESGGGLVQAGCSRRLSWAASGSTFPDYVMGWDRQAPGKERELVAAISSIGGSTYYADSVKGRFTISRDNAKNTVYLQMNSLKPEDSAVYYCAAENSYFYPFDYWGQGTQVTVSS,low polyreactivity
2,QVQLVESGGGLVQAGCSVRLSCAASGSFFVLNSMGWYRQAPGKERELVAAIDESGGGTYYADSVKGRFTISRDNAKNTVYLQMNSLKPEDTAVYYCAADTLAPRAYDYWGQGTQVTVSS,low polyreactivity
3,QVQLVESGGGLVQAGGCLRLSCAASGFIFDSNAMGWYRQAPGKERELVAAISRRGGSTYYADSVKGRFTISRDNAKNTVYVHMNSLKPEYTSVYYCNAEYGSHVKYGYWGQGTQVTVSS,high polyreactivity
4,QVQLVESGGGLVQAGGCLRLSCAASGFIFRRNALGWYSEAPGKERELVAAMGSRGTATDYADSVKGRFTISRDNAKKTVYLQMNRLNPEDTAVDYCAKSVVAWGPNFRPNHTRGYYWGQGTQATVSS,low polyreactivity
5,QVQLVESGGGLVQAGGCLRLSCAASGLIFIKYTMGWYRQAPGKERELVAVISGSGGSTYYADSVKGRFTISRDNAKNTVYLQMNSLKPEDTAVYYCAARSYALGYGGGYWGQGTQVTVSS,high polyreactivity
6,QVQLVESGGGLVQAGGCLRLSCAASGRTFYRNVMGWYRQAPGKEREWVGAISSRGGSTYYADSVKGRFTISRDNAKNTVYLQMNSLKPEDTAVYYCAAEGTYYGSDYWGQGTQVTVSS,high polyreactivity
7,QVQLVESGGGLVQAGGCLRLSCAASGSTFPRNAMGWYRQAPGKERELVATITSSGGGTYYADSVKGRFTISRDNAKNTVYLQMNILKPEDTAVYYCNADGPAGDAFDYCGQGTQVTVSS,low polyreactivity
8,QVQLVESGGGLVQAGGCLRLSCAASGSTFRYYAMGWYRQAPGKERELVAAIYGGGTTYYADSVKGRFTISRDNAKNTVYLQLNSLKPEDTAVYYCAASILFSYYGRDDYWGQGTQVTVSS,low polyreactivity
9,QVQLVESGGGLVQAGGCLRLSCAASGSTFYVYDMGWYRQAPGKERELVAAMSKRRGTTYYADSVKGRFTISRDNAKNTVYLQMNSLKPEDTAVYYCAAVFRSPSAGYQGGYWGQGSQVTVSS,high polyreactivity
10,QVQLVESGGGLVQAGGFLRLSCASSGSTFIYYAMGWYREAPGKERELVAAISWSGGRTYYADAVKGRFTISRDNAKNTVYLQMTSLKPEDTAVDYCAAESYYSDGYPGVDYWGQATQVTVSS,high polyreactivity
11,QVQLVESGGGLVQAGGGRRGSGAAAGSIFAWYAMGWYRQAPGTERELVATITWSGGSTYYADSVKGRFTISRDIAKNTVYLQMNSLKREDTAVYYCAAEVVGIWYDLWYQGDYWGQGTQVTVSS,low polyreactivity
12,QVQLVESGGGLVQAGGILRISCAASGRTFASNAMGWYRRAPGKERELVAAMSSSGGRTYYADSVKGRITISRDNAKNTVYLQMNSLKPEYTPVFYCAKVGPVYKYDYWGQGTQVTVSS,high polyreactivity
13,QVQLVESGGGLVQAGGILRLICAASGITFVSYGMVWYRQAPRKERELVAAITRSGGSTYYADSVKGRFTISRDNAKNTVYLQMNSLKPDDTAVYYCNARTRYASKGGGARWDSYGYWGQGTQVTVSS,high polyreactivity
14,QVQLVESGGGLVQAGGILRLICAASGRTFRYNAMGWYIQAPGKERELVASINSRGDSTYYADSVKGRFTISRDNAKNTVYLQMNSLKPEDTAVYYCNKRIGVGAYYVRYGYWGQGTQVTVSS,high polyreactivity
15,QVQLVESGGGLVQAGGILRLICDASGFIIGYYAMGWYRQAPGKERELVAAISKSGGRTRYADSVKGRFTISRDNAKNTVYLQMNSLKPEDTAVYYCATYDPARSTQGYDYWGQGTQVTVSS,high polyreactivity
16,QVQLVESGGGLVQAGGILRLSAASGSTLAGNTMGWYRQAPGKERELVAAINDSGGSTYYADSVKGRFTISRDNAKNTVYLQMNSLKPEDTAVYYCNADGSAYIEDGYDYWGQGTQVTVSS,low polyreactivity
17,QVQLVESGGGLVQAGGILRLSCAAAGGTLYYYMGWYRQAPGKESEFVAAINIRGDSTYYADSVKGRFTISRDNAKNTVYLQMNSLKPEDTAVYYCAADLPRRSAHYYYWGQGTLVTVSS,low polyreactivity
18,QVQLVESGGGLVQAGGILRLSCAASGFIFAYYAMGWYRQAPGKERELVAAITRRGGSTSYADSVKGRFTISRDNAKNTVYLQMNSLKPEDTAVYYCNAVSKYDYGYWGQGTQVTVSS,high polyreactivity
19,QVQLVESGGGLVQAGGILRLSCAASGFIFRRYAMGWYRQEPGKERELVAAINYSGGSTYYADSVKGRFTISRDNAKNTVYLKMNSLKPEDTAVYYCAAGSRRGIDPGSDYWGQGNQVTVSS,low polyreactivity
20,QVQLVESGGGLVQAGGILRLSCAASGFIFVRYAMGWYRQAPGKERELVAAISWRGGSTYYADSVKGRFTISRDNAKNTVYLQMNSLKPEDTAVFYCSAVTWVHRYSRFHPFVAFDYWGQGTQVTVSS,high polyreactivity
21,QVQLVESGGGLVQAGGILRLSCAASGFTFTRNAKGRYRQAPGKERELVAAISSGGRTYYADSVKGRFTISRDNAKNTVYLQMNSLKPEDTAVYYCPTTIWGPVEGYDYWGQGTQETVSS,high polyreactivity
22,QVQLVESGGGLVQAGGILRLSCAASGIIFYYYAMGWYRQAPGKEMELVAGIRARGGITYYADSVKGRFTISRDNAKNTVYLLMNSLKPVDTAVYYCAKSTRPVSGVPDGPLYEYWGQGTQVTVSS,low polyreactivity
